{
  "source": "paper PMC6978369",
  "about": "“Peptidoglycan reshaping by a noncanonical peptidase for helical cell shape in Campylobacter jejuni” (Nature Communications, 2020)",
  "key": {"[1]": {"target": "Pgp3 H247A mutant, residues 21-273 (C. jejuni (strain ATCC 33560))", "assay": "crystal structure; H247A protein (10 mg/mL, 20 mM Tris-HCl pH 8.0, 200 mM NaCl) mixed with peptide in a 1:10 molar ratio, 277 K for 1 h; crystals grown at 296 K in 1.8 M ammonium citrate tribasic pH 7.0"}, "Pgp3": {"target": "T1, Pgp3 (Campylobacter jejuni, UniProt A0AAD2UT50)", "T1 construct": "gene A8118_01115; residues 21-273 (Glu21 to Gln273 in Methods, Asn273 in Results) without N-terminal 20 residues, of 274 aa; expressed in E. coli Rosetta2 (DE3); Zn enzyme", "T1 sequence (A0AAD2UT50 entry or part of it)": "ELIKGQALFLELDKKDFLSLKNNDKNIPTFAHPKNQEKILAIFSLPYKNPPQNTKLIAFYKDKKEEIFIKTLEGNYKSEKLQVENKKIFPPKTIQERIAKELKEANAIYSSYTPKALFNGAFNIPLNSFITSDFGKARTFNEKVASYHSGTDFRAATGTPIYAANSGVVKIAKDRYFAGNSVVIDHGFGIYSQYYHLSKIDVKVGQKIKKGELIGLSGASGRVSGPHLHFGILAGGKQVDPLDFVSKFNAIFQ", "assay": "LC/MS turnover assay", "format": "biochemical", "settings": "D,D-endopeptidase; 50 mM Tris pH 7.5, 23 °C"}},
  "data": [
    {"compound": "pentapeptide 1, Ac-L-Ala1-γ-D-Glu2-mDAP3-D-Ala4-D-Ala5", "values": [
      {"measurement": "stoichiometry N", "setting": "[1]", "result": 1}
    ]},
    {"compound": "CO[C@@H]1O[C@H](CO)[C@@H](O)[C@H](O[C@H](C)C(=O)N[C@@H](C)C(=O)N[C@H](CCC(=O)N[C@@H](CCC[C@@H](NC(=O)[C@@H](C)NC(=O)[C@H](CCC[C@@H](N)C(=O)O)NC(=O)CC[C@@H](NC(=O)[C@H](C)NC(=O)[C@@H](C)O[C@H]2[C@H](O)[C@@H](CO)O[C@@H](OC)[C@@H]2NC(C)=O)C(=O)O)C(=O)O)C(=O)O)C(=O)O)[C@H]1NC(C)=O", "note": "[compound 2, crosslinked muramyl tetra-tri peptide]", "values": [
      {"measurement": "LC/MS turnover assay", "setting": "Pgp3", "result": "Pgp3 exhibited both D,D-carboxypeptidase and D,D-endopeptidase activities based on LC/MS analysis"}
    ]},
    {"compound": "crosslinked muramyl tetra-tri peptide 2, NAM-L-Ala1-γ-D-Glu2-mDAP3-D-Ala4-mDAP3-γ-D-Glu2-Ala1-NAM", "values": [
      {"measurement": "stoichiometry N", "setting": "[1]", "result": 1}
    ]}
  ]
}
